Assay results: the nanobody polyreactivity screen of Harvey et al. (2022)

Test: yeast display, Sf9 membrane polyspecificity reagent, FACS + sequencing; frameworks hold sequencing errors
Procedure, shortened: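 Polyreactivity labels are assigned by the sorting gate from which each nanobody was recovered. The gates were low and high (top ~1%), set on anti-HA fluorescence for expression and streptavidin fluorescence for reagent binding. Before sorting, galactose-induced (36–48 hours) yeast display cells were stained for 1 hour at 4 °C with 10% biotinylated, detergent-solubilized Sf9 membrane reagent.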

Sequence | polyreactivity (PSR sort gate)
QVQLVESGGGLVQAGGSLRLSCAASGRTFTYYAMGWYRQAPGKERELVAAISNGGRTYYADSVKGRFTISRDNAKNTVYLQMNSLKPEDTAVYYSAAYLSPKGRGFGSWGQGTQVTVSS | high polyreactivity
QVQLVESGGGLVQAGGSLRLSCAASGRTFTYYAMGWYRQATGKERELVAAISRGGGSTHYADSVKGRFTISRDNAKNTVYFQMNSLKPEDTAVYYCAARYSTRYKYDYWGQGTQVTVSS | high polyreactivity
QVQLVESGGGLVQAGGSLRLSCAASGRTFTYYAMGWYRQGPGKESELVAAITSGGRTYYADSVKGRFTISRDNAKNTVYLELNSLKPDDTAVYYCADRRIRDYYRSYDYWGQGTQGTVSS | high polyreactivity
QVQLVESGGGLVQAGGSLRLSCAASGRTFTYYGKGWYRQAPGKERELVAAITERGDSTYYADSVKGRFTISRDNAKNTVYLQMNSLKPEDTAVYYCAAAEHLTRPTSPTQDGDHWGQGTQVTVSS | low polyreactivity
QVQLVESGGGLVQAGGSLRLSCAASGRTFTYYSMGWYRQAPGKESELVARISIRGTNTYYADSLKGRFTISRDNAKNTVYLQMTSLKPEDTAVYYCAKYYYTSIVGYDSWGQGTQVTVSS | low polyreactivity
QVQLVESGGGLVQAGGSLRLSCAASGRTFVDYDMGWYRQAPGKERELVADINSGGSAYYADSVKGRFTISRDNAKNTVYLQMNSLKPEDTAVYYCAASYYGDNKYDYWGQGTQVTVSS | high polyreactivity
QVQLVESGGGLVQAGGSLRLSCAASGRTFVFNAMGWYSPAPGKERDLVAGISGSGGSTYYADSVKGRFTISRDNAKNTVYLQMNSLKPEDTAVYYCATKFPRKELDQDSVSGLGYWGLGTQVTVSS | low polyreactivity
QVQLVESGGGLVQAGGSLRLSCAASGRTFVFYGMGWYRQAPGKEREFVAAITRRGGSTYYADSVKGRFTISRDNAKNTVYLQMNSLKPEDTAVYYCAAGYSSRYRGGLDYWGQGTQVTVSS | high polyreactivity
QVQLVESGGGLVQAGGSLRLSCAASGRTFVIYVMGLYRQAPGKERELVARISGSDGGTYYADSVKGRFTISRDNAKNTVYLQMNSLKPEDTAVYYCATARYPVAGLMDYWGQGTQVTVSS | low polyreactivity
QVQLVESGGGLVQAGGSLRLSCAASGRTFVKNAMGWYIQAPGKERELVAAISYRGGSTYYADSVKGRFTISRDNAKNTVYLQMNSLKPEDTAVYYCAAQYLYYRYGGFGYWGQGTQVTVSS | high polyreactivity
QVQLVESGGGLVQAGGSLRLSCAASGRTFVLYAMGWYRQAPGKERELVAAIRQSDVSTYYADSVKGRFTISRDNAKNTVFLQMNSLKPEDTAVFYCAARNRYRRRYYYWGQGTQVTVSS | high polyreactivity
QVQLVESGGGLVQAGGSLRLSCAASGRTFVNNAMGRYREAPGKERELVAAITTSAGSTYYADSVKGRFTISRDNAKNTVYLQMNSLNPEDTAVYYCAAVVWKKRYFDLEYWGQGTQVTVSS | low polyreactivity
QVQLVESGGGLVQAGGSLRLSCAASGRTFVNNAMGWYRQAPGKERELVASIRYIGGSTYYADSVKGRFTISRDNEKNTVYLQMNSLKPEDTAVYYCAALAGRRPYDYWGQGTQVTVSS | high polyreactivity
QVQLVESGGGLVQAGGSLRLSCAASGRTFVNYAMGWYRQAPGKERELVAAISGGGGTNYADSVKGRFTISRDNAKNTVYLQMNSLKPEDTAVYYCAADTNGYEFDYWGQGTQVTVSS | low polyreactivity
QVQLVESGGGLVQAGGSLRLSCAASGRTFVPNAMGWYRQAPGKERELVAAISWSGDSTYYADSVKGRFTISRDNAKNTVYLQMNSLKPEDTAVYYCAARYEFFYKAFDVDSWGQGTQVTVSS | low polyreactivity
QVQLVESGGGLVQAGGSLRLSCAASGRTFVPYAMGWYRQAPGKERELVAAINSGTRTYADSVKGRFTISRDNAKNTVYLQMNSLKPEDTAVYYCARRGYYYDYWGQGTQVTVSS | high polyreactivity
QVQLVESGGGLVQAGGSLRLSCAASGRTFVPYAMGWYRQAPGKERELVAAITWSGGRTRYADSVKGRFTISRDNAKNTVFLQMNSLKPEDTAVYYCARYYWLYSSSYDYWGQGTQVTVSS | high polyreactivity
QVQLVESGGGLVQAGGSLRLSCAASGRTFVPYAMGWYRQAPWKERELVASISSSGGSTYYADSVKGRFTISRDNAKNTVYLQMNSLKPEDTAVYYCATADRWSSSYYRSVRWYHYDYWGQGTQVTVSS | low polyreactivity
QVQLVESGGGLVQAGGSLRLSCAASGRTFVPYTMGWYRQAPGKERELVAAISRSGARTYYADSVKGRFTISRDNAKNTVYLQMNSLKPEDTAVYYCVVIARYGYDYWGQGTQVTVSS | high polyreactivity
QVQLVESGGGLVQAGGSLRLSCAASGRTFVQYAMGWYRQAPGKERELVAAISDRGGNTYYADSVKGRFTISRDNAKNTVYLQMNSLKPEDTAVYYCAAKIALDNDYWGQGTQVTVSS | high polyreactivity
QVQLVESGGGLVQAGGSLRLSCAASGRTFVRNAMGWYRQAPGKERELVAAITRSGGSTYYADSVKGRFTISRDNAKNTVYLQMNSLKPEDTAVYYCSARPPYRVGIVPLGRREYYWGQGTQVTVSS | high polyreactivity
QVQLVESGGGLVQAGGSLRLSCAASGRTFVRYAMGWYRQAPGKEREFVAAISWSTGSTYFADSVKGRFTISRDNAKNTVYLQMNSLKPEDTAVYYCAADGYTTYWLLYEYDYWGQGTQVTVSS | low polyreactivity

Sequence | polyreactivity (PSR sort gate)
QVQLVESGGGLVQAGGSLRLSCAASGRTFVRYAMGWYRQATGNERELVAAISTSGGNTYYADSVKGRFSISRDNAKNTVYLQMNSLKPEDTAVYYCANDRGPNAKFDDWGQGTQVTVSS | low polyreactivity
QVQLVESGGGLVQAGGSLRLSCAASGRTFVSNAMGWYRQAPGKERELVAGINWTDDSTYYADSVKGRFTISRDNAKNTVYLQMNSLKPEDTAVYYCAADSWEFAWPRFDYWGQGTQVTVSS | low polyreactivity
QVQLVESGGGLVQAGGSLRLSCAASGRTFVSTAMGWYRQAPGKERELVAGMSQRGGSTYYADSVKGRFTISRDNAKNTVYLHMNSMKPEDTAVYYCNAVSRAYFYGAYGPYTRFNYWGQGTQVTVSS | high polyreactivity
QVQLVESGGGLVQAGGSLRLSCAASGRTFVSYAMGWYRQAPGKERELVAAISSSGGSTYYADSVKGRFTISRDNAKNTVYLQMNSLKPEDTAVYYCAADTTTRAYVEMDYWGQGTQVTVSS | low polyreactivity
QVQLVESGGGLVQAGGSLRLSCAASGRTFVSYDMGWYRQAPGKERELVATISWTAGSTYYADSVKGRFTISRDNAKNTVYLQMNSLKPEDTAVYYCAADVFYSIYDYWGQGTQVTVSS | low polyreactivity
QVQLVESGGGLVQAGGSLRLSCAASGRTFVVNAKGWYRQAPGKEREFVAAISYRGDSTYYSDSVKGRFTISRDNAKNTVYLQMNSLKPEDTAVYYCAARVLGPGRRFYYWVQGTQVTVSS | high polyreactivity
QVQLVESGGGLVQAGGSLRLSCAASGRTFVVNDMGWYRQAPGKERELVAAINYNAGSTFYADSVKGRFTISRYNAKKTVYYQMNSLKPEDTAVYYCATDVYGYVEYDYWGQGTQVTVSS | low polyreactivity
QVQLVESGGGLVQAGGSLRLSCAASGRTFVYNAMGWYRQAPGKEREFVAAISDGGGDTYYADSVKGRFTISRDNAKNTVYLQMNSLKPEDTAVYYCNVEWQQPGYAFDYWGQGTQVTVSS | low polyreactivity
QVQLVESGGGLVQAGGSLRLSCAASGRTFVYNAMGWYRQAPGKERELVAAISFGGGNTYYADSVKGRFTISRDNAKNTVYLQMNSLKPEDTAVYYCAKAYIGYWGASWYYAYDYWGQGTQVTVSS | low polyreactivity
QVQLVESGGGLVQAGGSLRLSCAASGRTFVYNAMGWYRQAPGKERELVAAITTNGGSTYYADSVKGRFTISRDNSKNTVYLQMNSLKPEDTAVYYCAADYSLPWSWLYEYWGQGTQVTVSS | low polyreactivity
QVQLVESGGGLVQAGGSLRLSCAASGRTFVYNGMGSYRQAPGKERELVAAISGSGGSTYYADSVKGRFTISRDNAKNTVYLQMNSLKPEDTAVYYCATRQGYRLYYWGQGTQVTVSS | high polyreactivity
QVQLVESGGGLVQAGGSLRLSCAASGRTFVYNTMGWYRQAPGKERELVASISSTGGNTYYSDSVKGRFTISRDNAKNTVYLQMNSLKPEDTAVYYCAAGAWTRGQYYYWGQRTQVTVSS | high polyreactivity
QVQLVESGGGLVQAGGSLRLSCAASGRTFVYYAMGWYRQAPGKEREFVAAISRSGGRTSYADSVKGRFTISRDNAKNTVYLQMNSLKPEDTAVYYCAAEKRTQPTSREYYWVQGTQVTVSS | high polyreactivity
QVQLVESGGGLVQAGGSLRLSCAASGRTFVYYAMGWYRQAPGKERELVARISYSGGSTYYADSVKGRFTISRDNAKKTVYLQMNSLKPEDTAVYYCSQAGYSPVYGYWGQGTQVSVSS | high polyreactivity
QVQLVESGGGLVQAGGSLRLSCAASGRTFVYYAMGWYRQAPGKERELVASISSVGTTKYADSVQGRFTISRANAKNTVYLQMNSLKPEDTAVYYCAAVPLSRNIFDSWGQGTQVTVSS | low polyreactivity
QVQLVESGGGLVQAGGSLRLSCAASGRTFVYYDMGWSRPAPGKERELVAAIDSSGSTYYADSVKGRFTISRDNAKNTVYLQMNSLKPEDTAVYYCAAGYWFFPYWYDYWGQGTQVTVSS | high polyreactivity
QVQLVESGGGLVQAGGSLRLSCAASGRTFWANAMGWYRPAPGKERELVAAITIGGRTYYADSVKGRFTISRDNAKNTVYLQMNSLKPEDTAVYYCNAGTRRPFPAESGYWGQVTQVTVSS | low polyreactivity
QVQLVESGGGLVQAGGSLRLSCAASGRTFWAYAMGWYRPAPGKERELVSAITTSGGSTNYADSVKGRFTISRDNAKNTVYLHMIRLKPEDTAVYYCNADPTYHVVNGVGYWGQGTQVTVSS | low polyreactivity
QVQLVESGGGLVQAGGSLRLSCAASGRTFWDYAMGWYRQAPGKEREFVAAINTSGGRTYYADSVKGRFTISRDNAKNTVYLQMNSLKPEDTAVYYCAARTRDRAYDSWGQGTQVTVSS | high polyreactivity
QVQLVESGGGLVQAGGSLRLSCAASGRTFWFYGMGWYREAAGKEREFVARISGSGGSTYYADSVKGRFTISRDNAKNTVYLQMNSLKPEDTAVYYCAKDNRYPYPSGLDYWGQGTQVTVSS | high polyreactivity
QVQLVESGGGLVQAGGSLRLSCAASGRTFWGYAMGWYRQAPGKERELVATISSTGSTNYAESVKGRFTISRDNAKNTVYFQMNSLKPEATAVYYCNAKRHVYRGWYQRYDYWGQGTQVTVSS | high polyreactivity
